We go through 83 variants from the RNAGym collection of RNA variant scans (doi:10.1073/pnas.2313332121).

The labels stand for the following.
B1: TPR t1 (parent)
chain: GACCAAUCUGCCCUCAGAGCUCGAGAACAUCUUCGGAUGCAGAGGAGGCAGGCUUCGGUGGCGCGAUAGCGCCAACGUCCUCAACCUCCAAUGCAUCCCACCACAUGAUGAUGCCUGAAGAGCCUUGGUUUUUUG

Variants of B1 are the subject of the data set. Nature of the data set: polymerase ribozyme fitness, log enrichment relative to wild type (log ratio); higher = more active; in vitro selection for triplet polymerase activity. In outline: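 To select mutant libraries of each subunit of a heterodimeric triplet polymerase ribozyme, built by PCR and transcribed, each was annealed with a biotinylated primer, partner subunit and triplets, then incubated frozen at −7 °C. Extended constructs were gel-excised, captured on streptavidin beads and amplified by RT-PCR, in one round carried out in triplicate. Illumina sequencing of input and output libraries kept genotypes with ≥10 input reads and ≥1 read per output. Fitness is the base-2 logarithm of genotype enrichment relative to wild-type enrichment, from inverse-variance-weighted replicate averages.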
With A5U C28U G69A C124U U133G, the “polymerase ribozyme fitness (log ratio)” value was -4.96.

Take C8U U78C: the “polymerase ribozyme fitness (log ratio)” value came out at 0.388.

Turning to C49G G52C, the “polymerase ribozyme fitness (log ratio)” value was -0.352.

As for C31A U96G A121G, the “polymerase ribozyme fitness (log ratio)” value is -4.67.

With C76G A91U U132A, the “polymerase ribozyme fitness (log ratio)” value is -1.52.

A46G A68U C114G: the “polymerase ribozyme fitness (log ratio)” value is -5.84.

Turning to C11U C49G G61U A90C, the “polymerase ribozyme fitness (log ratio)” value was -2.04.

As for G93U U112G G120C C123U, the “polymerase ribozyme fitness (log ratio)” value was -2.5.

As to G48A G117A, the “polymerase ribozyme fitness (log ratio)” value is -2.44.

As to A6U C86U, the “polymerase ribozyme fitness (log ratio)” value was -0.389.

As to G71C G113C, the “polymerase ribozyme fitness (log ratio)” value was -2.72.

Turning to C72G C85U C102U C104A A105G, the “polymerase ribozyme fitness (log ratio)” value was -7.34.

U81A G110U: the “polymerase ribozyme fitness (log ratio)” value was -2.6.

Regarding G45C G47A C79G, the “polymerase ribozyme fitness (log ratio)” value was -5.96.

For the variant C34G C123G, the “polymerase ribozyme fitness (log ratio)” value was -4.46.

As for C28G G57C A83C C123A, the “polymerase ribozyme fitness (log ratio)” value was -2.8.

For the variant A43G G71A C82A G120U A121C, the “polymerase ribozyme fitness (log ratio)” value is -3.35.

For the variant G47U A100C, the “polymerase ribozyme fitness (log ratio)” value was -2.83.

Consider C4G G63U C123A, for which the “polymerase ribozyme fitness (log ratio)” value is -1.09.

For C56A U116C, the “polymerase ribozyme fitness (log ratio)” value is -0.712.

On to A2U U87G U96G, for which the “polymerase ribozyme fitness (log ratio)” value is -3.12.

As for G47C A83U, the “polymerase ribozyme fitness (log ratio)” value is -1.11.

For C11A A37U C62A C102A, the “polymerase ribozyme fitness (log ratio)” value is -5.51.

As to G17U C82G, the “polymerase ribozyme fitness (log ratio)” value is -2.98.

Regarding C53U C62U U125A G128A U130A, the “polymerase ribozyme fitness (log ratio)” value was -3.39.

In the case of G61A C89U, the “polymerase ribozyme fitness (log ratio)” value was -0.458.

Turning to C97G U129A, the “polymerase ribozyme fitness (log ratio)” value is -5.28.

As to A46U C62A A68G G110A, the “polymerase ribozyme fitness (log ratio)” value is -5.73.

As to G58A G60A C99U U130A, the “polymerase ribozyme fitness (log ratio)” value was -5.34.

With C20G U21A U112A, the “polymerase ribozyme fitness (log ratio)” value was -0.639.

For C12G U21G A111U, the “polymerase ribozyme fitness (log ratio)” value is -3.89.

On to A24U A41C G42U C62G A83G C94G C123A G127A, for which the “polymerase ribozyme fitness (log ratio)” value was -6.99.

As to U106A C115G, the “polymerase ribozyme fitness (log ratio)” value was -3.75.

On to C13A C82A C94U G110A, for which the “polymerase ribozyme fitness (log ratio)” value was -3.09.

Turning to C31U G71U, the “polymerase ribozyme fitness (log ratio)” value is -4.09.

A74G: the “polymerase ribozyme fitness (log ratio)” value is 0.0609.

For G60C C94G U96A A103C, the “polymerase ribozyme fitness (log ratio)” value was -6.59.

Consider A2C G17A G44C G45A C86U U109A U131C, for which the “polymerase ribozyme fitness (log ratio)” value is -7.35.

C56G G57U G65A C101G A111C: the “polymerase ribozyme fitness (log ratio)” value was -6.81.

As for G39A C86G, the “polymerase ribozyme fitness (log ratio)” value was -1.11.

As to C72U G77C, the “polymerase ribozyme fitness (log ratio)” value was -1.07.

As to A6U C13G G69U C88U C97U G117C C124G U132A, the “polymerase ribozyme fitness (log ratio)” value was -1.66.

For C4A A41G U106A, the “polymerase ribozyme fitness (log ratio)” value was -1.87.

As to G48C A90U U112A, the “polymerase ribozyme fitness (log ratio)” value was -0.162.

As to C15U A43C C76U, the “polymerase ribozyme fitness (log ratio)” value was -3.95.

For the variant C11A C88G, the “polymerase ribozyme fitness (log ratio)” value is -2.99.

Regarding A27C C53A C82U, the “polymerase ribozyme fitness (log ratio)” value was -4.15.

Regarding A41C U78G, the “polymerase ribozyme fitness (log ratio)” value is -1.18.

Take C11U U106A: the “polymerase ribozyme fitness (log ratio)” value was -0.58.

Consider C62U G120C, for which the “polymerase ribozyme fitness (log ratio)” value came to 0.344.

As to A46C A50G, the “polymerase ribozyme fitness (log ratio)” value is -0.277.

G117A C124U: the “polymerase ribozyme fitness (log ratio)” value was -0.187.

A37G G63U C101G C104G C114U G128A: the “polymerase ribozyme fitness (log ratio)” value is -4.99.

Consider G42U G128A, for which the “polymerase ribozyme fitness (log ratio)” value is -3.14.

Regarding A5G U106A, the “polymerase ribozyme fitness (log ratio)” value was 0.687.

For the variant C12G A46G C53G A95G A119G, the “polymerase ribozyme fitness (log ratio)” value was determined as 0.414.

Take C70G U78C: the “polymerase ribozyme fitness (log ratio)” value was -2.66.

As to A105G U132A, the “polymerase ribozyme fitness (log ratio)” value is -1.89.

Turning to C28U G48U, the “polymerase ribozyme fitness (log ratio)” value was -2.79.

Regarding G61U U116C U130G, the “polymerase ribozyme fitness (log ratio)” value was -0.407.

As for A43C G77A, the “polymerase ribozyme fitness (log ratio)” value was -2.79.

Take A27G G71A: the “polymerase ribozyme fitness (log ratio)” value was -1.68.

Consider C11G A37G G69C C115G, for which the “polymerase ribozyme fitness (log ratio)” value was -3.53.

Take C28G G57U: the “polymerase ribozyme fitness (log ratio)” value is -2.76.

A5G G44A G71U A83C C86U: the “polymerase ribozyme fitness (log ratio)” value is -1.87.

For the variant U7G C40G C56U G69U, the “polymerase ribozyme fitness (log ratio)” value was -2.3.

On to G19U C53G C73A U112A, for which the “polymerase ribozyme fitness (log ratio)” value was -1.03.

Take G10A C62A: the “polymerase ribozyme fitness (log ratio)” value is -0.929.

Regarding C64U U129A, the “polymerase ribozyme fitness (log ratio)” value was -0.991.

Regarding C89G G120A, the “polymerase ribozyme fitness (log ratio)” value was -1.58.

For G60A C73G G110A U112C, the “polymerase ribozyme fitness (log ratio)” value was -2.14.

As to U14A C70U U126C G135U, the “polymerase ribozyme fitness (log ratio)” value is -3.92.

Turning to U54G G57A C72G C114U, the “polymerase ribozyme fitness (log ratio)” value is -5.48.

C62A C88U: the “polymerase ribozyme fitness (log ratio)” value is -2.23.

For G63U A74U G77A, the “polymerase ribozyme fitness (log ratio)” value was -5.16.

Consider C22U A37U, for which the “polymerase ribozyme fitness (log ratio)” value is -4.82.

For the variant C12U A41U C72G, the “polymerase ribozyme fitness (log ratio)” value was -1.1.

For C31U G120U, the “polymerase ribozyme fitness (log ratio)” value is -4.56.

Regarding C70U A118U, the “polymerase ribozyme fitness (log ratio)” value came out at 0.0135.

Consider A16C C22U, for which the “polymerase ribozyme fitness (log ratio)” value is -5.8.

With C11G C49G C70U C88G A111U G127C, the “polymerase ribozyme fitness (log ratio)” value was -5.65.

Consider A46G C56A C62G U130G U131C, for which the “polymerase ribozyme fitness (log ratio)” value is -4.26.

G42U G63A: the “polymerase ribozyme fitness (log ratio)” value was -2.77.
